This data set has as its system T1, Nc1ncnc2c1ncn2[C@@H]1O[C@H](COP(=O)(O)OP(=O)(O)OP(=O)(O)O)[C@@H](O)[C@H]1O.
T1 construct: RdRp domain residues 275-903 of NS5, cut from the genome polyprotein; E. coli BL21(DE3)-pRIL; 75 kDa
Briefly: purified protein. It is filed as biochemical, Zika virus. To be noted: poly-U 3 μg/mL, ATP 200–2250 μM, 2.5 mM MnCl2, pH 7.5, 30 °C.

For “ZIKV RdRp (ZIKV NS5 RdRp domain) (Zika virus)”, the Km – broadly, the concentration of substrate that gives half-maximal velocity – amounted to 561 ± 38 µM.

For the origin of these results see publication PMC6444013, “Development of a fluorescence-based method for the rapid determination of Zika virus polymerase activity and the screening of antiviral drugs” (Scientific Reports, 2019).
